Among the data in publication doi:10.1101/2025.09.19.677273 are stoichiometry N values, retold here.

In the experiment the target is c8-ring of the Fo domain (bovine (endogenous in bovine heart mitochondria)), P32876. The experiment is described as follows: cryo-EM structure. The note with it: remark: other sources report otherwise.

B1: c8-ring of the Fo domain, P32876 62-136 (natural protein)
chain: DIDTAAKFIGAGAATVGVAGSGAGIGTVFGSLIIGYARNPSLKQQLFSYAILGFALSEAMGLFCLMVAFLILFAM
With B1, the stoichiometry N (usually a count of units in the complex or per binding partner) is 8.
